# Source: patent US11542537B2, “High-purity steviol glycosides” (PureCircle Sdn Bhd, priority 2012, dated 2023)
# B1: S115N01 A1: UDP-glucosyltransferase Os03g0702500, Oryza sativa Japonica Group, SEQ ID 3 (protein, listed as Oryza sativa)
# chain: MDDAHSSQSPLHVVIFPWLAFGHLLPCLDLAERLAARGHRVSFVSTPRNLARLPPVRPELAELVDLVALPLPRVDGLPDGAEATSDVPFDKFELHRKAFDGLAAPFSAFLDTACAGGKRPDWVLADLMHHWVALASQERGVPCAMILPCSAAVVASSAPPTESSADQREAIVRSMGTAAPSFEAKRATEEFATEGASGVSIMTRYSLTLQRSKLVAMRSCPELEPGAFTILTRFYGKPVVPFGLLPPRPDGARGVSKNGKHDAIMQWLDAQPAKSVVYVALGSEAPMSADLLRELAHGLDLAGTRFLWAMRKPAGVDADSVLPAGFLGRTGERGLVTTRWAPQVSILAHAAVCAFLTHCGWGSVVEGLQFGHPLIMLPILGDQGPNARILEGRKLGVAVPRNDEDGSFDRGGVAGAVRAVVVEEEGKTFFANARKLQEIVADREREERCIDEFVQHLTSWNELKNNSDGQYP
# B2: S115N01 G2: UDP-glycosyltransferase, Avena strigosa, SEQ ID 4 (protein, listed as Avena strigosa)
# chain: MAVKDEQQSPLHILLFPFLAPGHLIPIADMAALFASRGVRCTILTTPVNAAIIRSAVDRANDAFRGSDCPAIDISVVPFPDVGLPPGVENGNALTSPADRLKFFQAVAELREPFDRFLADNHPDAVVSDSFFHWSTDAAAEHGVPRLGFLGSSMFAGSCNESTLHNNPLETAADDPDALVSLPGLPHRVELRRSQMMDPKKRPDHWALLESVNAADQKSFGEVFNSFHELEPDYVEHYQTTLGRRTWLVGPVALASKDMAGRGSTSARSPDADSCLRWLDTKQPGSVVYVSFGTLIRFSPAELHELARGLDLSGKNFVWVLGRAGPDSSEWMPQGFADLITPRGDRGFIIRGWAPQMLILNHRALGGFVTHCGWNSTLESVSAGVPMVTWPRFADQFQNEKLIVEVLKVGVSIGAKDYGSGIENHDVIRGEVIAESIGKLMGSSEESDAIQRKAKDLGAEARSAVENGGSSYNDVGRLMDELMARRSSVKVGEDIIPTNDGL
# B3: UGTLB: Lycium barbarum UDP-glucosyltransferase GI_209954733, SEQ ID 10, E. coli lysate (protein, listed as Escherichia coli)
# chain: MGTEVTVHKNTLRVLMFPWLAYGHISPFLNVAKKLVDRGFLIYLCSTAINLKSTIKKIPEKYSDSIQLIELHLPELPELPPHYHTTNGLPPHLNHTLQKALKMSKPNFSKILQNLKPDLVIYDLLQQWAEGVANEQNIPAVKLLTSGAAVLSYFFNLVKKPGVEFPFPAIYLRKNELEKMSELLAQSAKDKEPDGVDPFADGNMQVMLMSTSRIIEAKYIDYFSGLSNWKVVPVGPPVQDPIADDADEMELIDWLGKKDENSTVFVSFGSEYFLSKEDREEIAFGLELSNVNFIWVARFPKGEEQNLEDALPKGFLERIGDRGRVLDKFAPQPRILNHPSTGGFISHCGWNSVMESVDFGVPIIAMPIHLDQPMNARLIVELGVAVEIVRDDYGKIHREEIAEILKDVIAGKSGENLKAKMRDISKNLKSIRDEEMDTAAEELIQLCKNSPKLK
# Legend:
# Type in all cases: biochemical
# [1] = Catalytic test of in-vitro expressed UDP-glucosyltransferases, Rebaudioside A to Rebaudioside D (HPLC CAD); conditions: 0.5 mM Rebaudioside A, 30° C., T24h sample; for Steviol glycoside conversion in reaction mixture: Reb A: remaining substrate
# Protocol: 18 μL of plasmid solution (containing approximately 1.5 μg of plasmid) was used for in-vitro expression according to the Promega S30 T7 High-Yield Protein Expression System (ref: L1110) kit. The expression medium was produced as follows:
# The prepared expression medium mix was added to the plasmid solution and the solution was allowed to incubate at 30° C. for 3 hours while mixing the mixture every 45 minutes. 5 μL of the mixture was frozen whereas the remainder was used for the catalytic test for the conversion of Rebaudioside A to Rebaudioside D.
# (§1) 430 μL of a reaction mixture containing 0.5 mM Rebaudioside A, 3 mM MgCl2, 50 mM phosphate buffer (pH7.2) and 2.5 mM UDP-glucose was added to a 1.5 mL sterile microtube. 52 μL of the enzyme expression medium was added and the resulting mixture was allowed to react at 30° C. for 24 hours. 125 μL samples were taken after 2 hours, 16 hours and 24 hours and added to a 115 μL of 60% methanol and 10 μL of 2 N H2SO4. The quenched sample was centrifuged at 18,000 g for 2 minutes at RT. 200 μL was transferred to an HPLC vial and analyzed.
# The HPLC assay was performed as follows:
# as §1, with “RT.” for “RT. 200 μL was transferred to an HPLC vial and analyzed.”
# The HPLC assay was performed as described in EXAMPLE 20.
# [2] = LCMS of Rubusoside conversion products with UGTSL, UGTSL2, UGTLB; conditions: UGTSL2 2 hrs, UGTLB 5 hrs, UGTSL 45 hrs
# Protocol: (§2) Conversion of stevioside with UGTSL and UGTSL2 was conducted in similar manner to Example 28, and the conversion of rubusoside with UGTSL and UGTSL2 was conducted similarly to Example 29. Conversions of rubusoside and stevioside with UGTLB was conducted similarly to Example 32.
# (§3) The reaction mixtures were analyzed by LCMS to determine all reaction products.
# [3] = LCMS of Stevioside conversion products with UGTSL, UGTSL2, UGTLB; conditions: UGTSL2 2 hrs, UGTLB 2 hrs, UGTSL 22 hrs
# Protocol: as §2, §3
Molecule,Steviol glycoside conversion in reaction mixture: Reb D [1],Steviol glycoside conversion in reaction mixture: Reb A [1],"LC-MS, peak area ratio (%) Reb D [2]","LC-MS, peak area ratio (%) Reb E [2]","LC-MS, peak area ratio (%) Rub [2]","LC-MS, peak area ratio (%) Unknown peak #1 (MW804) RT 30.70 min [2]","LC-MS, peak area ratio (%) Unknown peak #2 (MW804) RT 49.50 min [2]","LC-MS, peak area ratio (%) Unknown peak #3 (MW804) RT 50.40 min [2]","LC-MS, peak area ratio (%) Reb E [3]","LC-MS, peak area ratio (%) Stev [3]","LC-MS, peak area ratio (%) Unknown peak #2 (MW966) RT = 26.50 min [3]"
B1,2.1 % area,96.7 % area,–,–,–,–,–,–,–,–,–
B2,0.6 % area,99.4 % area,–,–,–,–,–,–,–,–,–
B3,–,–,1.29%,9.21%,13.49%,4.07%,66.67%,5.27%,3.12%,43.11%,53.78%
